This is an account of results in PMC4072508, “Genome-Wide Prediction and Validation of Peptides That Bind Human Prosurvival Bcl-2 Proteins” (PLoS Computational Biology, 2014).

What all share (assay): peptide SPOT array, c-Myc-tagged receptor at 1 uM or 100 nM, anti-c-Myc-Cy3
One test has as its target Bcl-xL, Q07817.
The target in the next test is T1, Mcl-1, Q07820.
T1 chain: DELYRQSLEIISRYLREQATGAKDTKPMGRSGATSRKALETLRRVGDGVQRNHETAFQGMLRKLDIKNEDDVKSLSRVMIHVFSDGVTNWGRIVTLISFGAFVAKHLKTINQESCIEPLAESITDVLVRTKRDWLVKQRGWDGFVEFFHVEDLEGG

The next test deals with T2, Bfl-1, Q16548.
T2 chain: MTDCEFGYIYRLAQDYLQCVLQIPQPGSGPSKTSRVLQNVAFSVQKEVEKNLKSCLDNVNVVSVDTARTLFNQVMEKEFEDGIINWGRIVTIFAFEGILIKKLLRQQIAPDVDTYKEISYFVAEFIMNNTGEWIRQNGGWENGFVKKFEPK

Chain of Bcl-xL, Q07817 (Q07817 1-209): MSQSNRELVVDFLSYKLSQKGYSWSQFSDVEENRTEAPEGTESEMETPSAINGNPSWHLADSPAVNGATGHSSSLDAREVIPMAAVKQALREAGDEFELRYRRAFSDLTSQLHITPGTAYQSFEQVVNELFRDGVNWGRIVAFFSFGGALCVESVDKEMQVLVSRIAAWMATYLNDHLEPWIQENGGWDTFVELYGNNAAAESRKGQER

For the molecule TSRINEVQVNLSLLGDDLLLPAQSTL [SPHKAP], the SPOT signal as a fraction of Bim BH3's signal on the same receptor and array was determined as 0.06 in the test with Bcl-xL, Q07817; 0.04 with Mcl-1, Q07820; 0.03 in the test with Bfl-1, Q16548.

Take MQTLSELAKSFQDMLDRCLLVLHLEV: the SPOT signal as a fraction of Bim BH3's signal on the same receptor and array stood at 0.05 in the test with Bcl-xL, Q07817; 0.04 with Mcl-1, Q07820; 0.04 with Bfl-1, Q16548.

Take KGTAVAICRRDGIFGDTEDVAGKAYT: the SPOT signal as a fraction of Bim BH3's signal on the same receptor and array with Bcl-xL, Q07817 worked out at 0.08; with Mcl-1, Q07820, 0.08; with Bfl-1, Q16548 it was 0.06.

Turning to KGTAVAICRRLGIFLDTEDVAGKAYT, the SPOT signal as a fraction of Bim BH3's signal on the same receptor and array is 0.16 with Bcl-xL, Q07817; 0.16 with Mcl-1, Q07820; 0.09 with Bfl-1, Q16548.

Turning to APGEEDLCAADNVICDNVGKDWRRLA [FADD], the SPOT signal as a fraction of Bim BH3's signal on the same receptor and array turned out to be 0.06 with Bcl-xL, Q07817; 0.03 in the test with Mcl-1, Q07820; 0.04 with Bfl-1, Q16548.

In the case of CGEWTRRSLHLRVLLRQLILPTDKGV [FAM149A], the SPOT signal as a fraction of Bim BH3's signal on the same receptor and array worked out at 0.53 with Bcl-xL, Q07817; 0.53 with Mcl-1, Q07820; 0.51 with Bfl-1, Q16548.

For the molecule LTETSLISGNDHRIGDITSCSVLWLN [FBXW5], the SPOT signal as a fraction of Bim BH3's signal on the same receptor and array in the test with Bcl-xL, Q07817 is 0.06; with Mcl-1, Q07820, 0.03; with Bfl-1, Q16548, 0.04.

For the molecule SEIMHSFAKCIEVMGDGCLNNEHFEE [IPO5], the SPOT signal as a fraction of Bim BH3's signal on the same receptor and array with Bcl-xL, Q07817 was 0.09; with Mcl-1, Q07820 it was 0.04; with Bfl-1, Q16548 it was 0.03.

With TETKATFGVHLKIVLDWTERFRDLLL [NOX4], the SPOT signal as a fraction of Bim BH3's signal on the same receptor and array is 0.07 with Bcl-xL, Q07817; 0.08 with Mcl-1, Q07820; 0.08 with Bfl-1, Q16548.

On to GSPDSMFGISLAVLGDLNQDGFPDIA, for which the SPOT signal as a fraction of Bim BH3's signal on the same receptor and array is 0.07 with Bcl-xL, Q07817; 0.04 with Mcl-1, Q07820; 0.08 with Bfl-1, Q16548.

Take MQTLSELAKSDQDMADRCLLVLHLEV: the SPOT signal as a fraction of Bim BH3's signal on the same receptor and array with Bcl-xL, Q07817 amounted to 0.05; in the test with Mcl-1, Q07820 it was 0.04; with Bfl-1, Q16548, 0.04.

For the molecule APEEDFFSIHIRIVGDWTEGLFNACG [CYBB], the SPOT signal as a fraction of Bim BH3's signal on the same receptor and array with Bcl-xL, Q07817 was 0.06; in the test with Mcl-1, Q07820, 0.09; with Bfl-1, Q16548 it was 0.04.

SDIRDDISEQVRHVGRTVRGHPRKKL [TMEM184C]: the SPOT signal as a fraction of Bim BH3's signal on the same receptor and array was found to be 0.92 in the test with Bcl-xL, Q07817; 0.32 in the test with Mcl-1, Q07820; 0.29 with Bfl-1, Q16548.

FSKREKLVEIDRNIGDERTMVFVETK [DDX4]: the SPOT signal as a fraction of Bim BH3's signal on the same receptor and array in the test with Bcl-xL, Q07817 is 0.06; in the test with Mcl-1, Q07820 it was 0.07; with Bfl-1, Q16548, 0.06.

On to VLAPVQLGKWDVLFCDEINLPDMDKY [DYNC1H1], for which the SPOT signal as a fraction of Bim BH3's signal on the same receptor and array with Bcl-xL, Q07817 came to 0.07; with Mcl-1, Q07820, 0.05; with Bfl-1, Q16548 it was 0.07.

As for WTLFVYTKGNFRMIGDDLVNSYHLLL [RBL1], the SPOT signal as a fraction of Bim BH3's signal on the same receptor and array with Bcl-xL, Q07817 was determined as 0.13; in the test with Mcl-1, Q07820 it was 0.15; with Bfl-1, Q16548, 0.12.

On to EAVTDGLKRALRSFGNALGNCILDKD [RAD52], for which the SPOT signal as a fraction of Bim BH3's signal on the same receptor and array turned out to be 0.15 with Bcl-xL, Q07817; 0.1 with Mcl-1, Q07820; 0.06 with Bfl-1, Q16548.

For the molecule VDSIRPKCQELRHLLDQFSAEIARRR [MCF2L], the SPOT signal as a fraction of Bim BH3's signal on the same receptor and array with Bcl-xL, Q07817 is 0.6; with Mcl-1, Q07820 it was 0.25; in the test with Bfl-1, Q16548 it was 0.27.

Regarding TAGLRPGARLDRVCGQTLPSLRPEAA [SIPA1], the SPOT signal as a fraction of Bim BH3's signal on the same receptor and array in the test with Bcl-xL, Q07817 came out at 0.72; with Mcl-1, Q07820 it was 0.63; in the test with Bfl-1, Q16548, 0.45.

As to DDMFEPHSWNLKELSDDCFQQWGVRP [PRCP], the SPOT signal as a fraction of Bim BH3's signal on the same receptor and array was found to be 0.06 with Bcl-xL, Q07817; 0.04 with Mcl-1, Q07820; 0.05 with Bfl-1, Q16548.

GSPDSMFGISLAVLLDLNQDGFPDIA: the SPOT signal as a fraction of Bim BH3's signal on the same receptor and array with Bcl-xL, Q07817 came out at 0.07; with Mcl-1, Q07820, 0.04; with Bfl-1, Q16548, 0.07.

As to ADAIRPRCVELRHLLDDFINGNKKKW [MCF2L2], the SPOT signal as a fraction of Bim BH3's signal on the same receptor and array in the test with Bcl-xL, Q07817 stood at 0.56; with Mcl-1, Q07820, 0.26; with Bfl-1, Q16548 it was 0.31.
